Patent publication US20150147767A1

Key:
[1] = target: FITC-conjugated BAG3 recombinant protein (human) (UniProt O95817); experiment: flow cytometry, blocking of 14 nM FITC-rBAG3 binding to J774 A1 cells by 420 nM F(ab′)2; negative control
[2] = target: surface of J774 A1 macrophages (BAG3 binding partner not identified) (murine); experiment: flow cytometry on J774 A1 cells, negative control
[3] = target: surface of J774 A1 macrophages (BAG3 binding partner not identified) (murine); experiment: flow cytometry on J774 A1 cells
[4] = target: surface of J774 A1 macrophages (BAG3 binding partner not identified) (murine); experiment: flow cytometry on J774 A1 cells, 14 nM FITC-rBAG3
[5] = target: surface of J774 A1 macrophages (BAG3 binding partner not identified) (murine); experiment: flow cytometry competition on J774 A1 cells; 625 nM peptide, 14 nM FITC-rBAG3 as competitor

UniProt O95817, sequence (O95817 whole entry): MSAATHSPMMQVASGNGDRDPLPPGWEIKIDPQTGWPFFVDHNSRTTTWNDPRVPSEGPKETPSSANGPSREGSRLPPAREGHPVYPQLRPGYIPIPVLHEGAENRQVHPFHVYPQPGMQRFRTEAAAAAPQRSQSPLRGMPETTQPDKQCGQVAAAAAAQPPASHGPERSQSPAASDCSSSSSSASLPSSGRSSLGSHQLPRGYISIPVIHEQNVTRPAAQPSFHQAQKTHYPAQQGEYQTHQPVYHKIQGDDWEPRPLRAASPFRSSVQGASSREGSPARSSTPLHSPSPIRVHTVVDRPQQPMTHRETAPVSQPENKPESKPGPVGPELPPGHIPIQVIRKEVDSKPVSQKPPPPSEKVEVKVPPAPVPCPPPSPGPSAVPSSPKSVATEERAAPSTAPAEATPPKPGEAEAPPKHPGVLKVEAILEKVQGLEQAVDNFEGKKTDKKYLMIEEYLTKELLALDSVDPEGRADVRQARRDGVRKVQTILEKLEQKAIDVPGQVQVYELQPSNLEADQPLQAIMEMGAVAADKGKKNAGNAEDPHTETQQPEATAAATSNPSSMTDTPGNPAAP

| % inhibition [5] | % of positive cells [5] | Molecule | also measured |
| --- | --- | --- | --- |
|  |  | F(ab′)2 fragments from rabbit IgG (antibody) | % inhibition [1]: 0%; % of positive cells [1]: 14.7% |
|  |  | F(ab′)2 fragments from mouse IgG (antibody) | % inhibition [1]: 0%; % of positive cells [1]: 12.3% |
|  |  | FITC-conjugated BSA (albumin from bovine serum) (from UniProt P02769 25-607) | % of positive cells [2]: 4.04% |
|  |  | FITC-conjugated BAG3 recombinant protein (from UniProt O95817 1-575) | % of positive cells, FITC-BSA subtracted [3]: 11.1%; % of positive cells [4]: 15.7% |
| 98.4% | 0.18% | DRDPLPPGWEIKIDPQ [BAG3 peptide 1] |  |
| 89.1% | 1.21% | SSPKSVATEERAAPS [BAG3 peptide 2] |  |
| 93.8% | 0.68% | NPSSMTDTPGNPAAP [BAG3 peptide 4] |  |
| 47.2% | 5.86% | DKGKKNAGNAEDPHT [BAG3 peptide 3] |  |
